The assay concerns the target Human interleukin-18 (recombinant human IL-18) (human) (UniProt Q14116). Briefly: cell-based or functional assay.

Chain of Human interleukin-18 (recombinant human IL-18) (human) (Q14116 37-193 limits assumed): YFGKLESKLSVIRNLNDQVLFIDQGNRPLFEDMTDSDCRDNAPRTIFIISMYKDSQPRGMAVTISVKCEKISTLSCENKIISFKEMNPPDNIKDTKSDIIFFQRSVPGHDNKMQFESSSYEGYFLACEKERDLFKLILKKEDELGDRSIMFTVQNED
Chain of IL-18 bp (IL-18 binding protein as used in the bioassays) (O95998 31-194 limits assumed): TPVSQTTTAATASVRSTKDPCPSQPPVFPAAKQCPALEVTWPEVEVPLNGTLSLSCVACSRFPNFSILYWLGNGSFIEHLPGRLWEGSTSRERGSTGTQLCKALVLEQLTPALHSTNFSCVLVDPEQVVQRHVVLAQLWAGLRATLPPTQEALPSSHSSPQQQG

As to “IL-18 bp (IL-18 binding protein as used in the bioassays) (from UniProt O95998 31-194)”, the IC50, LPS-stimulated IFNγ release, human PBMC, Donor 1 10% serum amounted to 0.024; the IC50, LPS-stimulated IFNγ release, human PBMC, Donor 1 25% serum is 0.064; the IC50, LPS-stimulated IFNγ release, human PBMC, Donor 3 10% serum is 0.032; the IC50, LPS-stimulated IFNγ release, human PBMC, Donor 3 25% serum is 0.046. In addition, the complete inhibition of IL-18 mediated IFNγ release, LPS-stimulated human PBMC, 10% or 25% human serum is greater than 1 µg/mL.

The values are drawn from patent US8133978.
